{
  "source": "paper PMC9859762",
  "molecular_target": "thin filaments of membrane-permeabilized (skinned) porcine ventricular myofibrils (pig (endogenous in porcine ventricular myofibrils)) (UniProt P42639)",
  "sequence (P42639 whole entry, looked up)": "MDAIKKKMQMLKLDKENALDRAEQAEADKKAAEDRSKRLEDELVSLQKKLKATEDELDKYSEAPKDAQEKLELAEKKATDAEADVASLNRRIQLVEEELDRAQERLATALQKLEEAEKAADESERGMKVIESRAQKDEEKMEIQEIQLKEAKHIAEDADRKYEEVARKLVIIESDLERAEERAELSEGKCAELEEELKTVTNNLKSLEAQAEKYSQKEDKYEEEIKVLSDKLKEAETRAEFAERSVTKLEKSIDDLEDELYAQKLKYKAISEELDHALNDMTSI",
  "assay": "co-sedimentation; 23 ± 3 uM IANBD-labeled Tn incubated 4 h on ice (or overnight) with skinned porcine myofibrils (~20 mg/ml) in hypotonic rigor buffer with 6 mM ATP and 1 mg/ml BSA; myofibrils pelleted at 1,000 x g and washed; labeled cTnC relative to total cTnC on 18% SDS-PAGE (fluorescence against Coomassie)",
  "data": [
    {"substance": "human recombinant troponin complex containing IANBD-cTnC^T53C, wild-type cTnI and wild-type cTnT (from UniProt P63316 1-161; P19429 1-210)", "values": [
      {"measurement": "extent of exchange (labeled cTnC relative to total cTnC in the myofibrils)", "result": 41, "unit": "%"}
    ]}
  ]
}
